# Measured values from patent US20220323445A1, “REDUCING IMMUNOGENICITY TO PEGLOTICASE” (Horizon Therapeutics Ireland DAC, priority 2020, published 2022).
# B1: pegloticase (protein)
# chain: TYKKNDEVEFVRTGYGKDMIKVLHIQRDGKYHSIKEVATTVQLTLSSKKDYLHGDNSDVIPTDTIKNTVNVLAKFKGIKSIETFAVTICEHFLSSFKHVIRAQVYVEEVPWKRFEKNGVKHVHAFIYTPTGTHFCEVEQIRNGPPVIHSGIKDLKVLKTTQSGFEGFIKDQFTTLPEVKDRCFATQVYCKWRYHQGRDVDFEATWDTVRSIVLQKFAGPYDKGEYSPSVQKTLYDIQVLTLGQVPEIEDMEISLPNIHYLNIDMSKMGLINKEEVLLPLDNPYGKITGTVKRKLSSRL
# modifications: monomethoxy PEG conjugated; Krystexxa Sequence
# notes: covalent conjugate of uricase produced by a genetically modified strain of Escherichia coli and monomethoxypoly (ethylene glycol)
# How the values were obtained:
# [1] = Stability of pegloticase diluted in infusion bags; type: physicochemical; conditions: at 2° C. to 8° C. and at room temperature (20° C. to 25° C.); 0.45% or 0.9% Sodium Chloride
# Protocol: Preparation—Vials were visually inspected for particulate matter and discoloration before administration, whenever solution and container permit. Vials were not used if either was present. Using appropriate aseptic technique, 1 mL of pegloticase was withdrawn from the vial into a sterile syringe. Any unused portion of product remaining in the vial was discarded. Syringe contents were injected into a single 250 mL bag of 0.45% or 0.9% Sodium Chloride Injection, United States Pharmacopeia (USP) for IV infusion and was not mixed or diluted with other drugs. The infusion bag containing the dilute pegloticase solution was inverted several times, but not shaken, to ensure thorough mixing.
# Pegloticase diluted in infusion bags was stable for 4 hours at 2° C. to 8° C. (36° F. to 46° F.) and at room temperature (20° C. to 25° C., 68° F. to 77° F.); however, the diluted solution was stored under refrigeration, not frozen, protected from light, and used within 4 hours of dilution. Before administration, the diluted solution of pegloticase was allowed to reach room temperature. Pegloticase in a vial or IV infusion fluid was never subjected to artificial heating.
# [2] = test system: patients with uncontrolled gout; assay: Tender joint count (68-point) and swollen joint count (66-point), open-label study; type: in vivo, human; conditions: mITT
# Protocol: Tender and Swollen Joint Counts: Tender and swollen (excludes hip) joint counts were recorded at the Week −4 or week −6 (prior to the first dose of MTX) Visit during the MTX Run-in Period for the open-label and randomized studies, respectively; prior to pegloticase infusion at the Day 1 and Weeks 14, 24 and 36 Visits, or at the Day 1 and weeks 6, 14, 20, 24, 30, 36, and 44 visits during the Pegloticase+IMM Period for the open-label and randomized studies, respectively; and at the End of Pegloticase Infusions Visit (if applicable) and the Week 52/End of Study/Early Termination Visit and the Post Treatment 3 and 6 month Follow-up visits. Tender and swollen joint counts were assessed by physical examination.
# [3] = Day 1 vs Methotrexate Baseline, n=14
# [4] = Early Termination Visit vs Methotrexate Baseline, n=3
# [5] = Early Termination Visit vs Pegloticase Baseline, n=3
# [6] = End of Pegloticase Infusions Visit vs Methotrexate Baseline, n=2
# [7] = End of Pegloticase Infusions Visit vs Pegloticase Baseline, n=2
# [8] = End of Pegloticase Infusions Visit, n=2
# [9] = Week 14 vs Methotrexate Baseline, n=14
# [10] = Week 14 vs Pegloticase Baseline, n=14
# [11] = Week 24 vs Methotrexate Baseline, n=11
# [12] = Week 24 vs Pegloticase Baseline, n=11
# [13] = Week 36 vs Methotrexate Baseline, n=9
# [14] = Week 36 vs Pegloticase Baseline, n=9
# [15] = Week 52/ET vs Methotrexate Baseline, n=3
# [16] = Week 52/ET vs Pegloticase Baseline, n=3
molecule,measurement,setting,value
B1,stability of pegloticase diluted in infusion bags,[1],4 h
same,"Swollen Joint Count, Observed, Mean (SD)","[2]; Day 1, n=14",5.3 (6.94)
same,"Swollen Joint Count, Observed, Median","[2]; Day 1, n=14",3.5
same,"Tender Joint Count, Observed, Mean (SD)","[2]; Day 1, n=14",9.6 (11.03)
same,"Tender Joint Count, Observed, Median","[2]; Day 1, n=14",7.0
same,"Swollen Joint Count, Change from Baseline, Mean (SD)",[2]; [3],−0.7 (5.21)
same,"Swollen Joint Count, Change from Baseline, Median",[2]; [3],0.5
same,"Tender Joint Count, Change from Baseline, Mean (SD)",[2]; [3],−1.9 (9.75)
same,"Tender Joint Count, Change from Baseline, Median",[2]; [3],0.0
same,"Swollen Joint Count, Change from Baseline, Mean (SD)",[2]; [4],−1.0 (1.73)
same,"Swollen Joint Count, Change from Baseline, Median",[2]; [4],0.0
same,"Tender Joint Count, Change from Baseline, Mean (SD)",[2]; [4],0.7 (5.13)
same,"Tender Joint Count, Change from Baseline, Median",[2]; [4],2.0
same,"Swollen Joint Count, Change from Baseline, Mean (SD)",[2]; [5],−3.3 (3.06)
same,"Swollen Joint Count, Change from Baseline, Median",[2]; [5],−4.0
same,"Tender Joint Count, Change from Baseline, Mean (SD)",[2]; [5],−2.7 (4.16)
same,"Tender Joint Count, Change from Baseline, Median",[2]; [5],−4.0
same,"Swollen Joint Count, Observed, Mean (SD)","[2]; Early Termination Visit, n=3",0.7 (0.58)
same,"Swollen Joint Count, Observed, Median","[2]; Early Termination Visit, n=3",1.0
same,"Tender Joint Count, Observed, Mean (SD)","[2]; Early Termination Visit, n=3",7.7 (8.96)
same,"Tender Joint Count, Observed, Median","[2]; Early Termination Visit, n=3",3.0
same,"Swollen Joint Count, Change from Baseline, Mean (SD)",[2]; [6],−7.0 (4.24)
same,"Swollen Joint Count, Change from Baseline, Median",[2]; [6],−7.0
same,"Tender Joint Count, Change from Baseline, Mean (SD)",[2]; [6],−12.0 (7.07)
same,"Tender Joint Count, Change from Baseline, Median",[2]; [6],−12.0
same,"Swollen Joint Count, Change from Baseline, Mean (SD)",[2]; [7],−2.0 (2.83)
same,"Swollen Joint Count, Change from Baseline, Median",[2]; [7],−2.0
same,"Tender Joint Count, Change from Baseline, Mean (SD)",[2]; [7],−3.0 (5.66)
same,"Tender Joint Count, Change from Baseline, Median",[2]; [7],−3.0
same,"Swollen Joint Count, Observed, Mean (SD)",[2]; [8],0.0 (0.00)
same,"Swollen Joint Count, Observed, Median",[2]; [8],0.0
same,"Tender Joint Count, Observed, Mean (SD)",[2]; [8],2.0 (2.83)
same,"Tender Joint Count, Observed, Median",[2]; [8],2.0
same,"Swollen Joint Count, Observed, Mean (SD)","[2]; Week 14, n=14",1.7 (3.73)
same,"Swollen Joint Count, Observed, Median","[2]; Week 14, n=14",0.0
same,"Tender Joint Count, Observed, Mean (SD)","[2]; Week 14, n=14",4.6 (6.16)
same,"Tender Joint Count, Observed, Median","[2]; Week 14, n=14",2.0
same,"Swollen Joint Count, Change from Baseline, Mean (SD)",[2]; [9],−4.3 (7.38)
same,"Swollen Joint Count, Change from Baseline, Median",[2]; [9],−2.0
same,"Tender Joint Count, Change from Baseline, Mean (SD)",[2]; [9],−7.0 (14.20)
same,"Tender Joint Count, Change from Baseline, Median",[2]; [9],0.0
same,"Swollen Joint Count, Change from Baseline, Mean (SD)",[2]; [10],−3.6 (7.04)
same,"Swollen Joint Count, Change from Baseline, Median",[2]; [10],−2.5
same,"Tender Joint Count, Change from Baseline, Mean (SD)",[2]; [10],−5.1 (8.12)
same,"Tender Joint Count, Change from Baseline, Median",[2]; [10],−5.0
same,"Swollen Joint Count, Observed, Mean (SD)","[2]; Week 24, n=11",0.5 (1.21)
same,"Swollen Joint Count, Observed, Median","[2]; Week 24, n=11",0.0
same,"Tender Joint Count, Observed, Mean (SD)","[2]; Week 24, n=11",2.6 (3.88)
same,"Tender Joint Count, Observed, Median","[2]; Week 24, n=11",0.0
same,"Swollen Joint Count, Change from Baseline, Mean (SD)",[2]; [11],−6.6 (9.03)
same,"Swollen Joint Count, Change from Baseline, Median",[2]; [11],−3.0
same,"Tender Joint Count, Change from Baseline, Mean (SD)",[2]; [11],−10.2 (14.27)
same,"Tender Joint Count, Change from Baseline, Median",[2]; [11],−4.0
same,"Swollen Joint Count, Change from Baseline, Mean (SD)",[2]; [12],−5.1 (6.66)
same,"Swollen Joint Count, Change from Baseline, Median",[2]; [12],−3.0
same,"Tender Joint Count, Change from Baseline, Mean (SD)",[2]; [12],−6.8 (8.16)
same,"Tender Joint Count, Change from Baseline, Median",[2]; [12],−4.0
same,"Swollen Joint Count, Observed, Mean (SD)","[2]; Week 36, n=9",0.1 (0.33)
same,"Swollen Joint Count, Observed, Median","[2]; Week 36, n=9",0.0
same,"Tender Joint Count, Observed, Mean (SD)","[2]; Week 36, n=9",2.1 (4.54)
same,"Tender Joint Count, Observed, Median","[2]; Week 36, n=9",0.0
same,"Swollen Joint Count, Change from Baseline, Mean (SD)",[2]; [13],−7.8 (10.81)
same,"Swollen Joint Count, Change from Baseline, Median",[2]; [13],−3.0
same,"Tender Joint Count, Change from Baseline, Mean (SD)",[2]; [13],−12.3 (14.56)
same,"Tender Joint Count, Change from Baseline, Median",[2]; [13],−7.0
same,"Swollen Joint Count, Change from Baseline, Mean (SD)",[2]; [14],−6.2 (8.15)
same,"Swollen Joint Count, Change from Baseline, Median",[2]; [14],−4.0
same,"Tender Joint Count, Change from Baseline, Mean (SD)",[2]; [14],−7.8 (8.94)
same,"Tender Joint Count, Change from Baseline, Median",[2]; [14],−4.0
same,"Swollen Joint Count, Change from Baseline, Mean (SD)",[2]; [15],−21.0 (9.64)
same,"Swollen Joint Count, Change from Baseline, Median",[2]; [15],−25.0
same,"Tender Joint Count, Change from Baseline, Mean (SD)",[2]; [15],−24.0 (21.38)
same,"Tender Joint Count, Change from Baseline, Median",[2]; [15],−17.0
same,"Swollen Joint Count, Change from Baseline, Mean (SD)",[2]; [16],−13.0 (13.00)
same,"Swollen Joint Count, Change from Baseline, Median",[2]; [16],−13.0
same,"Tender Joint Count, Change from Baseline, Mean (SD)",[2]; [16],−16.0 (17.52)
same,"Tender Joint Count, Change from Baseline, Median",[2]; [16],−15.0
same,"Swollen Joint Count, Observed, Mean (SD)","[2]; Week 52/ET, n=3",0.0 (0.00)
same,"Swollen Joint Count, Observed, Median","[2]; Week 52/ET, n=3",0.0
same,"Tender Joint Count, Observed, Mean (SD)","[2]; Week 52/ET, n=3",5.3 (3.21)
same,"Tender Joint Count, Observed, Median","[2]; Week 52/ET, n=3",4.0
